# T1: INDEHISCENT (IND) fused to RFP (p35S:IND-RFP) (Arabidopsis thaliana, UniProt O81313 1-198)
# T1 construct: INDEHISCENT (IND), bHLH transcription factor of Arabidopsis thaliana; source: N. benthamiana leaves, Agrobacterium-infiltrated, in nuclei of the leaf cells
# T1 sequence (looked up): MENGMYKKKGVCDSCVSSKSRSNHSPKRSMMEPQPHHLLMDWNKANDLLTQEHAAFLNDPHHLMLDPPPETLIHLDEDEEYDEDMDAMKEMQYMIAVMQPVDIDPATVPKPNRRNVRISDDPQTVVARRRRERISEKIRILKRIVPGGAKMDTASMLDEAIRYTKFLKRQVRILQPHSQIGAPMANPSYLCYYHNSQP
# T2: HECATE 1 (HEC1) fused to RFP (p35S:HEC1-RFP) (Arabidopsis thaliana, UniProt Q9FHA7 1-241)
# T2 construct: HECATE 1 (HEC1), bHLH transcription factor of Arabidopsis thaliana; source: N. benthamiana leaves, Agrobacterium-infiltrated, in nuclei of the leaf cells
# T2 sequence (looked up): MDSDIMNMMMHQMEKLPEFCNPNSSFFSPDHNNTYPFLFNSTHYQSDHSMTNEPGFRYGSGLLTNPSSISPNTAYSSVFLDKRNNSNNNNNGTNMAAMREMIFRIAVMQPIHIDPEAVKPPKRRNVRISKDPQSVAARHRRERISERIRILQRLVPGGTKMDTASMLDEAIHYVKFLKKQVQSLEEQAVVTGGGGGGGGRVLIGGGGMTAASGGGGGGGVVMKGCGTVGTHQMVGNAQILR
# Assays:
# Experiment in all cases: FRET or BRET; FRET-FLIM in nuclei of co-infiltrated N. benthamiana leaves (with P19), 48 h; SPT-EGFP as donor, RFP fusions as acceptors; with or without co-expressed SEC-3xHA or SPY-3xHA; at least 60 nuclei per condition
# [1] = target: T1, INDEHISCENT (IND) fused to RFP …; settings: partners not purified
# [2] = target: the molecule itself
# [3] = target: T2, HECATE 1 (HEC1) fused to RFP …; settings: partners not purified
binder,measurement,setting,value
"SPATULA (SPT) fused to EGFP (p35S:SPT-GFP); second copy in the homodimer test fused to RFP (p35S:SPT-RFP) (natural protein, Arabidopsis thaliana, UniProt Q9FUA4 1-373, looked up, SPATULA (SPT) of Arabidopsis thaliana; In the SPT;SPT test one copy carried EGFP (FRET donor) and the other RFP (acceptor) in place of EGFP; both copies are written as this one molecule; also called SPT-EGFP; source: N. benthamiana leaves, Agrobacterium-infiltrated, in nuclei of the leaf cells) MISQREEREEKKQRVMGDKKLISSSSSSSVYDTRINHHLHHPPSSSDEISQFLRHIFDRSSPLPSYYSPATTTTTASLIGVHGSGDPHADNSRSLVSHHPPSDSVLMSKRVGDFSEVLIGGGSGSAAACFGFSGGGNNNNVQGNSSGTRVSSSSVGASGNETDEYDCESEEGGEAVVDEAPSSKSGPSSRSSSKRCRAAEVHNLSEKRRRSRINEKMKALQSLIPNSNKTDKASMLDEAIEYLKQLQLQVQMLTMRNGINLHPLCLPGTTLHPLQLSQIRPPEATNDPLLNHTNQFASTSNAPEMINTVASSYALEPSIRSHFGPFPLLTSPVEMSREGGLTHPRLNIGHSNANITGEQALFDGQPDLKDRIT",FRET efficiency,[1],9.6%
same,FRET efficiency,[2],5.7%
same,FRET efficiency,[3],7.4%

# — publication doi:10.1101/2023.04.28.538690, “Post-translational modification of SPATULA by SECRET AGENT and SPINDLY promotes organ symmetry transition at the gynoecium apex” (bioRxiv, 2023)
